Tests used:
[1] = molecular target: TbAdoMetDC-W137A/M146A (Trypanosoma brucei)
[2] = molecular target: TbAdoMetDC H172A (Trypanosoma brucei)
[3] = molecular target: Trypanosoma brucei S-adenosylmethionine decarboxylase, wild type (Trypanosoma brucei)
[4] = molecular target: N-terminally truncated TbAdoMetDCΔ26 (Trypanosoma brucei)

Chain of Trypanosoma brucei S-adenosylmethionine decarboxylase, wild type (Trypanosoma brucei) (P50244 1-85, tags left off, chain 1 of 2): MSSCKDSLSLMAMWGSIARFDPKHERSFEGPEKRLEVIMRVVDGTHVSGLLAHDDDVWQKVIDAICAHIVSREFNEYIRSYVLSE
Chain of Trypanosoma brucei S-adenosylmethionine decarboxylase, wild type (Trypanosoma brucei) (P50244 86-370 limits assumed, chain 2 of 2): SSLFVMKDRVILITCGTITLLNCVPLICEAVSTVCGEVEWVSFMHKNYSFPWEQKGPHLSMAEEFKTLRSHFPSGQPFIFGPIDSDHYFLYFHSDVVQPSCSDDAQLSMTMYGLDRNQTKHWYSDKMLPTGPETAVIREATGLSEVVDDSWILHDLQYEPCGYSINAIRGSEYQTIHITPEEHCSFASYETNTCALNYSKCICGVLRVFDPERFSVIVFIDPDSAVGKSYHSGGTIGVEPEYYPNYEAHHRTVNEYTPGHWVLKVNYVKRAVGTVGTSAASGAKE

| Substance | kcat/Km of AdoMet decarboxylation (14C-AdoMet, 37°C) by the TbAdoMetDC/prozyme heterodimer, with 4 mM putrescine [1] [s^−1M^−1] | kcat/Km of AdoMet decarboxylation (14C-AdoMet, 37°C) by the TbAdoMetDC/prozyme heterodimer, without putrescine [1] [s^−1M^−1] | kcat/Km of AdoMet decarboxylation (14C-AdoMet, 37°C) by the TbAdoMetDC/prozyme heterodimer, with 4 mM putrescine [2] [s^−1M^−1] | kcat/Km of AdoMet decarboxylation (14C-AdoMet, 37°C) by the TbAdoMetDC/prozyme heterodimer, without putrescine [2] [s^−1M^−1] | kcat/Km of AdoMet decarboxylation (14C-AdoMet, 37°C) by the TbAdoMetDC/prozyme heterodimer, with 4 mM putrescine [3] [s^−1M^−1] | kcat/Km of AdoMet decarboxylation (14C-AdoMet, 37°C) by the TbAdoMetDC/prozyme heterodimer, without putrescine [3] [s^−1M^−1] | kcat/Km of AdoMet decarboxylation (14C-AdoMet, 37°C) by the TbAdoMetDC/prozyme heterodimer, with 4 mM putrescine [4] [s^−1M^−1] | kcat/Km of AdoMet decarboxylation (14C-AdoMet, 37°C) by the TbAdoMetDC/prozyme heterodimer, without putrescine [4] [s^−1M^−1] |
| --- | --- | --- | --- | --- | --- | --- | --- | --- |
| Trypanosoma brucei prozyme, wild type (natural protein) | 87 | 5 | 2100 | 93 | 3200 | 2600 | 7.6 | 2.2 |
| prozyme-M148'A/Y152'A (natural protein) | – | – | – | – | 660 | 16 | – | – |

Source: publication PMC5201418
